The values below come from publication PMC8277567, “Thermostable D-amino acid decarboxylases derived from Thermotoga maritima diaminopimelate decarboxylase” (Protein Engineering, Design and Selection, 2021).

The subject of one data set is NC(CCCCC(=O)O)C(=O)O. Put plainly: purified protein. As to conditions: similar conditions to wild-type assay; 2-APA 0-10 mM; racemic substrate.
Data set [1] deals with N[C@H](CCC[C@H](N)C(=O)O)C(=O)O. Put plainly: purified protein. The following applies: 100 mM TEA-HCl pH 7.8, PLP, 10 mM MgCl2, 30 C, DAP 0-10 mM.

As to “TmDAPDC (diaminopimelate decarboxylase from T. maritima) (Thermotoga maritima MSB8; E315T)”, in the data set on NC(CCCCC(=O)O)C(=O)O, the Km was 0.32 (0.03) mM and the catalytic constant (kcat) is 0.2 s⁻¹.

As for “TmDAPDC (diaminopimelate decarboxylase from T. maritima) (Thermotoga maritima MSB8)”, in data set [1], the Km is listed as 0.27 (0.06) mM and the catalytic constant (kcat) worked out at 0.075 s⁻¹.
